Starred links: 1 amine or outer side, 2 acyl side, 3 side chain; linkers in the order of their positions; H or OH if unused. Positions of bridges follow the written chain, without caps; N, C: chain ends. Non-standard residues stand in square brackets, D forms with d. Primed or numbered codes have the meaning given here. PyrS2″ = (S)-3-amino-1-((pent-4-en-1-yloxy)carbonyl)pyrrolidine-3-carboxylic acid (stapling residue), C=CCCCOC(=O)N1CC[C@@](N[*:1])(C(=O)[*:2])C1; B5(16) = 2-amino-2-(pent-4-en-1-yl)hept-6-enoic acid = 2,2-bis(4-pentenyl)glycine (stitching residue), C=CCCCC(CCCC=C)(N[*:1])C(=O)[*:2]; B5(4) = 2,2-bis(4-pentenyl)glycine = 2-amino-2-(pent-4-en-1-yl)hept-6-enoic acid (stitching residue), C=CCCCC(CCCC=C)(N[*:1])C(=O)[*:2]; B5(5) = 2,2-bis(4-pentenyl)glycine, 2-amino-2-(pent-4-en-1-yl)hept-6-enoic acid (stitching residue), C=CCCCC(CCCC=C)(N[*:1])C(=O)[*:2]; TfeGA = (S)-2-amino-3-((carboxymethyl)(2,2,2-trifluoroethyl)amino)propanoic acid, O=C([C@H](CN(CC(=O)[*:3])CC(F)(F)F)N[*:1])[*:2]; B5(9) = 2-amino-2-(pent-4-en-1-yl)hept-6-enoic acid (2,2-bis(4-pentenyl)glycine), C=CCCCC(CCCC=C)(N[*:1])C(=O)[*:2]; B5(19) = 2-amino-2-(pent-4-en-1-yl)hept-6-enoic acid (bis(4-pentenyl)glycine), C=CCCCC(CCCC=C)(N[*:1])C(=O)[*:2]; d(βAsp) = O=C(O)[C@@H](CC(=O)[*:2])N[*:1]; βAsp = O=C(O)[C@H](CC(=O)[*:2])N[*:1]; Bta = N[C@@H](Cc1csc2ccccc12)C(=O)O; αAllylPro = C=CC[C@@]1(C(=O)O)CCCN1; tBuAla = CC(C)(C)C[C@H](N)C(=O)O; 3Thi = N[C@@H](Cc1ccsc1)C(=O)O; S8 = C=CCCCCCC[C@](C)(N)C(=O)O; 34ClF = not defined here
T1: full-length beta-Catenin (Uniprot ID P35222) (Homo sapiens (Human), UniProt P35222 1-781)
T1 construct: also called bCat; B-Catenin
T1 sequence: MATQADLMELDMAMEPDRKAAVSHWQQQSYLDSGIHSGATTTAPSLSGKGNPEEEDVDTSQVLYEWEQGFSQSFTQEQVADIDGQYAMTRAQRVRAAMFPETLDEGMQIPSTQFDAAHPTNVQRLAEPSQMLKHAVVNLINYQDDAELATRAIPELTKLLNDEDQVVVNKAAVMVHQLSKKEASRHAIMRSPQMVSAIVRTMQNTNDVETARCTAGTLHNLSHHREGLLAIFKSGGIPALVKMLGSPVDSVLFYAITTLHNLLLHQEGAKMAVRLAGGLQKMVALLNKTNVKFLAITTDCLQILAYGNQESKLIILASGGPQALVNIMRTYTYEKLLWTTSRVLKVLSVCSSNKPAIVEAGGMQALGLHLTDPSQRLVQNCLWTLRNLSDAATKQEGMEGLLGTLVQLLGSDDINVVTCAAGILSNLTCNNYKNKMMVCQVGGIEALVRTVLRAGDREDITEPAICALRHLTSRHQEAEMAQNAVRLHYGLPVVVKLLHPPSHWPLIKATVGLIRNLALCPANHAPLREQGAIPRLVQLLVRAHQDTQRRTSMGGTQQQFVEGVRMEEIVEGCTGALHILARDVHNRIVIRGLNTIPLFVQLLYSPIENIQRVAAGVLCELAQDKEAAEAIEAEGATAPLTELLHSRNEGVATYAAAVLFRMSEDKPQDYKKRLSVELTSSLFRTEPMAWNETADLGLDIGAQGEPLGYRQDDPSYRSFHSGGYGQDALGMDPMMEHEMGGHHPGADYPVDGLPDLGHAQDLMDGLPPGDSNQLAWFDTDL

T2: B-cat-Halo (beta-catenin HaloTag construct expressed in HEK293 cells) (UniProt P35222 1-781)
T2 sequence (looked up): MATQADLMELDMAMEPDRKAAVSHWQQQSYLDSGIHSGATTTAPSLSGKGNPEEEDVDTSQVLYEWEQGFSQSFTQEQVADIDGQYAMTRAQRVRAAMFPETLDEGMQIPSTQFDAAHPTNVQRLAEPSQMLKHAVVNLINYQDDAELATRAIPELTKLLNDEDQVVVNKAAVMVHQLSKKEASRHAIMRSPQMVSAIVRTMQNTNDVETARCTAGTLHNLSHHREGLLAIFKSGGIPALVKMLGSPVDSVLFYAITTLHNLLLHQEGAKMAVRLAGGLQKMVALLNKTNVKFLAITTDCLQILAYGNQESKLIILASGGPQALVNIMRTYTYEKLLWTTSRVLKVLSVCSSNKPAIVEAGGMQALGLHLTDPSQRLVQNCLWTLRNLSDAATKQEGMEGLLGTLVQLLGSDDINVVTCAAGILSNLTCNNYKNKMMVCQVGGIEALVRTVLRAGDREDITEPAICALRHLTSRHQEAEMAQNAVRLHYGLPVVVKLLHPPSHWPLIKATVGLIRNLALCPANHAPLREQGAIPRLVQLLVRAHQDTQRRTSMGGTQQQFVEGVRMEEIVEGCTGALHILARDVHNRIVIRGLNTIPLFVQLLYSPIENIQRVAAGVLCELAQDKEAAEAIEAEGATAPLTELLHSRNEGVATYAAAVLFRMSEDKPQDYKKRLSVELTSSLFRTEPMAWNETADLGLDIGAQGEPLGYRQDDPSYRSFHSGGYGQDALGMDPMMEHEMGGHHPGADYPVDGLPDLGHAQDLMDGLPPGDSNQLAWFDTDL


Biological target: T1, full-length beta-Catenin (Uniprot ID …)
Test: fluorescence polarization competition; full-length beta-catenin, competitor 5FAM-TCF4(10-53) probe
In short: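 Data fitted to 1:1 binding model with hill slope from duplicate reads taken after 60 minutes at 20° C. in the dark.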

| Binder | IC50 [nM] |
| --- | --- |
| Ac-[αAllylPro]DI[B5(5)][d(βAsp)]EAAFQ[S8]F[Bta]Q-NH2 (staple 1-4, 4-11, Stapled peptide) [I-674] | 5000 |
| Ac-[αAllylPro][d(βAsp)]I[B5(9)]DEAAFQ[S8]F[Bta]Q-NH2 (staple 1-4, 4-11, Stapled peptide) [I-668] | 675 |
| Ac-[αAllylPro]DI[B5(9)]DEAWFQ[S8]F[Bta]Q-NH2 (staple 1-4, 4-11, Stapled peptide) [I-664] | 996 |
| XDIXDEALFQXFXQ (not fully specified; Ac-PL3-Asp-Ile-B5-Asp-Glu-Ala-Leu-Phe-Gln-S8-Phe-BztA-Gln-NH2; N-terminal acetyl, C-terminal amide; PL3(1), B5(4), S8(11) stapled by olefin metathesis (1-4 and 4-11); BztA at 13, Stapled peptide) [I-659] | 430 |
| Ac-[αAllylPro]DI[B5(19)]DEAFFQ[S8]F[Bta]Q-NH2 (staple 1-4, 4-11, Stapled peptide) [I-660] | 544 |
| Ac-[αAllylPro]DI[B5(19)]DEAQFQ[S8]F[Bta]Q-NH2 (staple 1-4, 4-11, Stapled peptide) [I-663] | 43 |
| Ac-[αAllylPro]DI[B5(16)]DEWAFQ[S8]F[Bta]Q-NH2 (staple 1-4, 4-11, Stapled peptide) [I-655] | 183 |
| Ac-[αAllylPro]DI[B5(16)]DESAFQ[S8]F[Bta]Q-NH2 (staple 1-4, 4-11, Stapled peptide) [I-652] | 72 |
| Ac-[αAllylPro]DI[B5(9)]DEAWFQ[S8]F[Bta]Q-NH2 (staple 1-4, 4-11, Stapled peptide) [I-665] | 923 |
| XDIXDEASFQXFXQ (not fully specified; Ac-PL3-Asp-Ile-B5-Asp-Glu-Ala-Ser-Phe-Gln-S8-Phe-BztA-Gln-NH2; N-terminal acetyl, C-terminal amide; PL3(1), B5(4), S8(11) stapled by olefin metathesis (1-4 and 4-11); BztA at 13, Stapled peptide) [I-661] | 45 |
| XDIXDEALFQXFXQ (not fully specified; Ac-PL3-Asp-Ile-B5-Asp-Glu-Ala-Leu-Phe-Gln-S8-Phe-BztA-Gln-NH2; N-terminal acetyl, C-terminal amide; PL3(1), B5(4), S8(11) stapled by olefin metathesis (1-4 and 4-11); BztA at 13, Stapled peptide) [I-658] | 546 |
| Ac-[αAllylPro][d(βAsp)]I[B5(9)]DEAAFQ[S8]F[Bta]Q-NH2 (staple 1-4, 4-11, Stapled peptide) [I-669] | 451 |
| Ac-[αAllylPro]DI[B5(9)][βAsp]EAAFQ[S8]F[Bta]Q-NH2 (staple 1-4, 4-11, Stapled peptide) [I-673] | 5000 |

Biological target: T2, B-cat-Halo (beta-catenin HaloTag …)
Test: cell-based or functional assay

| Binder | NanoBRET Abs IC50 [µM] |
| --- | --- |
| Ac-[αAllylPro]D[tBuAla][B5(4)]DDAAFN[PyrS2″][3Thi][34ClF]Q-NH2 (staple 1-4, 4-11; reading uncertain; also: printed as Ac-PL3-Asp-Npg-B5-Asp-Asp-Ala-Ala-Phe-Asn-PyrS2-3Thi-34C1F-Gln-NH2) [I-2182] | 11.1 |
| Ac-[αAllylPro]D[tBuAla][B5(4)]D[TfeGA]AAFL[PyrS2″][3Thi][Bta]Q-NH2 (staple 1-4, 4-11; not fully specified (residue 9); also: later-eluting HPLC isomer peak) [I-2185] | 6.1 |

From patent publication US20240116985A1 (published 2024)
